Data from patent publication US20100297160A1 (MEDICAL COLLEGE OF GEORGIA RESEARCH INSTITUTE, published 2010).

Biological target: human amyloid beta 42 (Aβ42) (human)
Test: co-incubation of equimolar peptides for one month at 37 C, dialysis, 10 kDa filter concentration, SDS gel
Procedure: Various means were studied to enhance the immune potential of amyloid peptides. One such approach was derived from experiments with samples of human plasma and brain tissues having a complex of peptides that expressed epitopes for both human Aβ peptide and human RAGE. This involved the incubation of equimolar amounts of Aβ and an immunogenic fragment of RAGE for one month in sterile water at 37° C.
After incubation, the solution was dialyzed to remove unused products. The dialyzed solution was then concentrated in a centrifugation filter with a 10,000 molecular weight cutoff. […] The concentrated complex was dissolved in water and administered orally to rats on three occasions with two weeks between administrations. Two weeks after the last administration plasma samples were obtained for the determination of Aβ or RAGE titers.

Chain of human amyloid beta 42 (Aβ42) (human) (peptide, as listed by the source): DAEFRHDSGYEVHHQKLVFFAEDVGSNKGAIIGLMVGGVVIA

B1: immunogenic fragment of RAGE, amino acids 23 to 54 of human RAGE (RAGE23-54) (peptide)
peptide: AQNITARIGEPLVLKCKGAPKKPPQRLEWKLN
notes: also called RAGE fragment
B1: binds.
